Assay results published in publication PMC3168509, “Insights into the Role of Yeast eIF2A in IRES-Mediated Translation” (PLoS ONE, 2011).

Target: T1, GST-eEF1A (full-length eEF1A/Tef1p fused to GST) (S. cerevisiae, UniProt P02994 1-458)
T1 construct: yeast eEF1A, TEF1 amplified by PCR from genomic DNA; also called GST-TEF1; full-length eEF1A fusion protein; not shown: GST, N-terminal, kept
T1 sequence (looked up): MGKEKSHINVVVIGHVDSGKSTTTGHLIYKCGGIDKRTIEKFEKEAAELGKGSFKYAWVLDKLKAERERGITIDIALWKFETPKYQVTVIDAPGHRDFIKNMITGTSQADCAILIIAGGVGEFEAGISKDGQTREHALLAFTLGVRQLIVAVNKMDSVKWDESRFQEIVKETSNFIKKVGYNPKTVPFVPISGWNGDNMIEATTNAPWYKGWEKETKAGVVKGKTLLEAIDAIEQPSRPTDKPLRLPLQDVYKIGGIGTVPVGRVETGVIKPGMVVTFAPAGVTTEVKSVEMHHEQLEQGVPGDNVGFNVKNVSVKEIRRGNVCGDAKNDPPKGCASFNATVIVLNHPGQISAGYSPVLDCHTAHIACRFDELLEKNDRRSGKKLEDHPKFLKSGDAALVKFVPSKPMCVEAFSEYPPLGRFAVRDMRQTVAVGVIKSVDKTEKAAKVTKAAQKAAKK
Test: pull-down; full-length GST-eEF1A on glutathione-Sepharose with lysates of ΔeIF2A yeast carrying YCplac111-YP, grown 1 h without or with 6% ethanol; Western blot for HA, bands quantified with Image J against 8% input
Details: one partner purified

B1: HA-eIF2A (N-terminally HA-tagged eukaryotic initiation factor 2A expressed from YCplac111-YP) (natural protein, S. cerevisiae, UniProt P53235 1-642, looked up)
chain: MSSQFFLKTSQDIELFQSYPTFEQSNTNSKDFPVISSVLSPCGRFLALSTKENVKVFTGPCLDNVLLTMKLSDVYDLHFSPAGNYLSTWERASIQDPNHKNVKVWYLNKPFKKDCVSEDIVPAYEYQAKSQSGWFLQFSKLDNYGLRLFKHDLKIVKLSSANADNFDFQSPFAVLSDDETSQHFTTYLISPAEHPTICTFTPEKGGKPAQLIIWALSEGKITKKIASKTFFKADSCQLKWNPLGNAILCLAITDFDSSNKSYYGENTLYLLSFQGVNGTLGGNSVRVSLTTGPVHDFTWSPTSRQFGVIAGYMPATISFFDLRGNVVHSLPQQAKNTMLFSPSGHYILIAGFGNLQGSVEILDRLDKFKCVSKFDATNTSVCKWSPGGEFIMTATTSPRLRVDNGVKIWHVSGSLVFVKEFKELLKVDWRSPCNYKTLENKDEAFFENHIINNWEPLPDSTTSSLDPKISNKSELQIHSSVQEYISQHPSREASSNGNGSKAKAGGAYKPPHARRTGGGRIVPGVPPGAAKKTIPGLVPGMSANKDANTKNRRRRANKKSSETSPDSTPAPSAPASTNAPTNNKETSPEEKKIRSLLKKLRAIETLKERQAVGDKLEDTQVLKIQTEEKVLKDLEKLGWKDE
notes: yeast eukaryotic initiation factor 2A, encoded by YGR054w; the HA-tagged eIF2A coding region behind its natural promoter; the kind of modification is not known; also called HA-tagged eIF2A; YGR054w; source: BY4684 ΔeIF2A yeast transformed with YCplac111-YP (native promoter), in lysate; not shown: HA, N-terminal, kept
  fold increase in interaction (6% ethanol against untreated cells): 2 fold
